Patent US20210171647A1 (WUXI BIOLOGICS SHANGHAI, published 2021)
Substitutions are numbered along the chain they refer to.

B1: 1.62.3-u1-IgG1K (antibody, V domains shown)
VH: QVQLQESGPGLVKPSQTLSLTCTVSGGSISNGGYYWSWIRQHPGKGLEWIGYIYYSGSTYYNPSLKSRVTISVDTSKNQFSLKLSSVTAADTAVYYCARDEWELRGFDYWGQGTLVTVSS
VL: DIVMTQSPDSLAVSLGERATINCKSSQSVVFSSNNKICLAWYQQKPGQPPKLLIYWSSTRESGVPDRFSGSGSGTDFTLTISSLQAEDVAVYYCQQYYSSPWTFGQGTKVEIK
notes: fully human IgG1, kappa
B2: 1.62.3-u1-3-IgG1K (antibody, V domains shown)
VH: B1 VH with G32A
VL: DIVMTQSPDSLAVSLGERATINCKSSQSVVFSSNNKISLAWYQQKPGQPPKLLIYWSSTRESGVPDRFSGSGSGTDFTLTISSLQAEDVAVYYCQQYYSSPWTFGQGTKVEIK
notes: fully human IgG1, kappa; PTM variant of 1.62.3-u1-IgG1K (G to A in CDRH1, C to S in CDRL1)
B3: 1.7.10-u1-IgG1K (antibody, V domains shown)
VH: QVHLVESGGGLVKPGGSLRLSCAASGFTFSDYYMSWIRQAPGKGLEWVSYISGSGNTIYYADSVKGRFTISRDNAKNSLYLQMNSLRADDTAVYFCARERGAAGTGWFDPWGQGTLVTVSS
VL: DIQMTQSPSSVSASVGDRVTITCRASQGISSWLAWYQQKPGKAPKLLIYAASSLQGGVPSRFSGSGSGTDFTLTISSLQPEDFATYYCQQVNSFPWTFGQGTKVEIK
notes: fully human IgG1, kappa
B4: 1.186.19-u1-IgG1K (antibody, V domains shown)
VH: B3 VH with S35G, K43Q, R98K, T105A
VL: B3 VL with Y87H
notes: fully human IgG1, kappa
B5: 1.214.23-u1-IgG1K (antibody, V domains shown)
VH: QVQLQESGPGLVKPSGTLSLTCVVSGGSISNRNWWSWVRQPPGKGLEWIGEIFHSGNTNYNPSLKSRVTISVDKSKNQFSLKVNSVTAADTAVYYCAKSFAVALDSWGQGTLVTVSS
VL: DIQLTQSPSFLSASVGDRVTITCRASQDINSYLAWCQQKPGKAPKLLIYAASSLQSGVPSRFSGTGSGTEFTLTISSLQPEDFATYYCQQLFSYPITFGQGTRLEIK
notes: fully human IgG1, kappa

What was measured:
[1] = biological target: T1, human OX40 extracellular domain (ECD) protein (human, UniProt P43489 29-214); test: SPR, Biacore T200, antibody captured, OX40 as analyte
T1 construct: extracellular domain; also called human OX40 ECD; human OX40 protein; not shown: human Fc or His tag
T1 sequence (looked up): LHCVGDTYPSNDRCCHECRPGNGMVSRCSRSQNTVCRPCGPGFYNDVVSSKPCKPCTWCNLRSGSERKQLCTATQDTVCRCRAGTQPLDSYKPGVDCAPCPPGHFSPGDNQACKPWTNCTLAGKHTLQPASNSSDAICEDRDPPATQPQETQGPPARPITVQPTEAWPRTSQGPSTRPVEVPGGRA

human CD40 ECD = biological target: T2, human CD40 ECD (human, UniProt P25942 21-193); test: ELISA on coated ECD, one antibody concentration (not given)
T2 construct: extracellular domain

human 4-1BB (CD137) ECD = biological target: T3, human 4-1BB (CD137) ECD (human, UniProt Q07011 24-186); test: as above
T3 construct: extracellular domain
Description: (§1) Human OX40, CD40, 4-1BB (CD137) and CD271 ECD were coated on plates (Nunc) overnight at 4° C. After blocking and washing, testing antibodies were diluted in blocking buffer and added to the plates and incubated at room temperature for 1 h. The plates were then washed and subsequently incubated with secondary antibody goat anti-human IgG Fc-HRP (Bethyl) for 1 h. After washing, TMB substrate was added and the interaction was stopped by 2M HCl.

human CD271 ECD = biological target: T4, human CD271 ECD (human, UniProt P08138 29-250); test: as above
T4 construct: extracellular domain
T4 sequence (looked up): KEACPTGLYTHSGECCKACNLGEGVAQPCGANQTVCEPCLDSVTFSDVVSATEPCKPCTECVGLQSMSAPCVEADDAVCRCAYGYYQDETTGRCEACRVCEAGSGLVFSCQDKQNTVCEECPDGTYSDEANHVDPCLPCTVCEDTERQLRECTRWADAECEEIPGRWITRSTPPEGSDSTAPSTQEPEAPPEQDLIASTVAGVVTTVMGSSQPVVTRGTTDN
Description: as §1

[2] = biological target: T1, human OX40 extracellular domain (ECD) …; test: competition ELISA: human OX40 ECD coated, antibody titrated in a mix with a constant concentration of OX40L, bound OX40L detected at OD450
Description: Briefly, plates (Nunc) were coated with human OX40 ECD at 1 μg/mL overnight at 4° C. […] After washing, TMB substrate was added and the interaction was stopped by 2M HCl.

[3] = biological target: T5, human OX40, full-length, on cells (human, UniProt P43489 29-277); test: flow cytometry, MFI against antibody concentration; neither the legend nor paragraph 266 names the cells, target taken as cell-surface human OX40 because the antibodies are anti-OX40
T5 construct: whole, on cells; also called hPro1; cell surface human OX40
T5 sequence (looked up): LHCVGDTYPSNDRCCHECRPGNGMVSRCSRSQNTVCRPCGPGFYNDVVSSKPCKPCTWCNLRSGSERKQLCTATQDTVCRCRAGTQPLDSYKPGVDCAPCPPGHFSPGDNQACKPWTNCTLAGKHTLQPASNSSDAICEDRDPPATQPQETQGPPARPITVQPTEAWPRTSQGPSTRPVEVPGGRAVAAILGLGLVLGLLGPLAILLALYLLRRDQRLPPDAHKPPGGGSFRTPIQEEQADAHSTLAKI

[4] = biological target: T5, human OX40, full-length, on cells; test: flow cytometry on human OX40 transfected CHO-K1 cells
Description: (§2) CHO-K 1 cells expressing human OX40 were transferred in to 96-well U-bottom plates (Corning) at a density of 5×10⁴ cells/mL. Testing antibodies were 1:2 serially diluted in wash buffer (1×PBS/1% BSA) and incubated with cells at 4° C. for 1 h. The secondary antibody goat anti-human IgG Fc FITC (3.2 moles FITC per mole IgG, Jackson Immunoresearch Lab) was added and incubated with cells at 4° C. in the dark for half an hour. The cells were then washed once, resuspended in 1×PBS/1% BSA and analyzed by flow cytometry (BD). Fluorescence intensity was converted to bound molecules/cell based on the quantitative beads Quantum™ MESF Kits (Bangs Laboratories, Inc.). The KD value of each antibody was calculated using Graphpad Prism5.

[5] = biological target: T5, human OX40, full-length, on cells; test: flow cytometry on activated human CD4+ T cells
Description: Briefly, human OX40-expressing CHO-K1 cells or activated human CD4⁺ T cells were transferred into 96-well U-bottom plates (Corning) at a density of 1×10⁵ cells/well. Testing antibodies were serially diluted in wash buffer (1×PBS/1% BSA) and incubated with cells at 4° C. for 1 h. After washing with 1×PBS/1% BSA, the secondary antibody goat anti-human IgG Fc-PE (Jackson ImmunoResearch Lab) was applied and incubated with cells at 4° C. in the dark for 1 h. The cells were then washed and resuspended in 1×PBS/1% BSA or fixed with 4% paraformaldehyde, and then analyzed by flow cytometry (BD).

[6] = biological target: T1, human OX40 extracellular domain (ECD) …; test: epitope binning by competition against labelled BMK7 on human OX40; the antibody named in the legend box is titrated; the text describes an ELISA, the axis on the sheet reads MFI
[7] = biological target: T6, mouse OX40 (mPro1) on transfected 293F cells (mouse, UniProt P47741 20-272); test: FACS, transfected 293F cells, antibody 1 ug/mL
T6 construct: whole, on cells
T6 sequence (looked up): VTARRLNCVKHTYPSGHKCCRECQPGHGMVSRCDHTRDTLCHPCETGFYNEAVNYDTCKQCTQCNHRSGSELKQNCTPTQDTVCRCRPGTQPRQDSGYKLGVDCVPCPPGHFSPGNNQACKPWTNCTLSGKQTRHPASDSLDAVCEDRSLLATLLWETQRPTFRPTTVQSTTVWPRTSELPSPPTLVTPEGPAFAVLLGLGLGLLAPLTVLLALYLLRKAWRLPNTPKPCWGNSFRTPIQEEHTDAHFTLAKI
Description: (§3) Binding of antibodies to chimeric OX40 variants was analyzed by flow cytometry. […] Cells were analyzed using flow cytometer.

[8] = biological target: T5, human OX40, full-length, on cells; test: FACS, transfected 293F cells, antibody 1 ug/mL
Description: as §3

[9] = biological target: T5, human OX40, full-length, on cells; test: flow cytometry, CHO-K1 cells expressing human OX40, MESF beads
Description: as §2

[10] = biological target: T1, human OX40 extracellular domain (ECD) …; test: epitope binning by competition against labelled BMK10 on human OX40; the antibody named in the legend box is titrated; the text describes an ELISA, the axis on the sheet reads MFI
[11] = biological target: T7, rhesus monkey OX40 on transfected 293F cells (rhesus monkey); test: flow cytometry on rhesus monkey OX40 transfected 293F cells
T7 construct: whole, on cells
Description: Testing antibodies were serially diluted in wash buffer (1×PBS/1% BSA) and incubated with cells at 4° C. for 1 h. After washing with 1×PB S/1% BSA, the secondary antibody goat anti-human IgG Fc-PE (Jackson ImmunoResearch Lab) was applied and incubated with cells at 4° C. in the dark for 1 h. The cells were then washed and resuspended in 1×PB S/1% BSA or fixed with 4% paraformaldehyde, and then analyzed by flow cytometry (BD).

T2 sequence (P25942 21-193): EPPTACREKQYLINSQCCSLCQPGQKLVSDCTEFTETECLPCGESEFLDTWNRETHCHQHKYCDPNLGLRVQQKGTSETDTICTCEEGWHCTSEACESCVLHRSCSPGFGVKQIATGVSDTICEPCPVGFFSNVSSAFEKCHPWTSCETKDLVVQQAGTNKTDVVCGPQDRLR
T3 sequence (Q07011 24-186): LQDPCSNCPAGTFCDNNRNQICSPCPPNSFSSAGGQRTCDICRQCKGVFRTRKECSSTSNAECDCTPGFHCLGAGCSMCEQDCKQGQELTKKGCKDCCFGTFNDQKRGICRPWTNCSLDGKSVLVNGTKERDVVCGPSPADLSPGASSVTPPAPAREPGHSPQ

| Binder | Kd [1] [nM] | koff [1] [s⁻¹] | kon [1] [M⁻¹ s⁻¹] | binding result (human CD40 ECD) | binding result (human 4-1BB (CD137) ECD) | binding result (human CD271 ECD) | IC50 (read off the curve) [2] [nM] | EC50 (read off the curve) [3] [nM] | EC50 (read off the curve) [4] [nM] | EC50 (read off the curve) [5] [nM] | IC50 (read off the curve) [6] [nM] | MFI [7] | PE + % [7] [%] | MFI [8] | PE + % [8] [%] | Kd [9] [nM] | IC50 (read off the curve) [10] [nM] | EC50 (read off the curve) [11] [nM] |
| --- | --- | --- | --- | --- | --- | --- | --- | --- | --- | --- | --- | --- | --- | --- | --- | --- | --- | --- |
| B1 | 0.461 | 0.000243 | 526000 | no binding | no binding | no binding | ~1 | ~0.8 | – | – | – | – | – | – | – | – | – | – |
| B2 | 2.08 | 0.00145 | 697000 | – | – | – | – | ~2 | ~0.9 | ~0.8 | – | – | – | – | – | – | – | – |
| B3 | 1.49 | 0.00128 | 860000 | no binding | no binding | no binding | ~3 | – | ~1 | 1 to 2 | ~4 | – | – | – | – | – | – | – |
| B4 | 1.16 | 0.000451 | 390000 | no binding | no binding | no binding | ~3 | – | – | ~2 | ~4 | – | – | – | – | – | – | – |
| B5 | 0.502 | 0.000214 | 426000 | no binding | no binding | no binding | ~1 | – | ~0.6 | – | ~1 | 49.9 | 0.315 | 8320 | 89.3 | 0.067 | ~4 | ~3 |
